Data as given in patent publication US20260028415A1 (FULL LIFE TECHNOLOGIES HK, published 2026).

T1: human CEACAM5 expressed on MKN45 cells (human, UniProt P06731 35-685)
T1 sequence: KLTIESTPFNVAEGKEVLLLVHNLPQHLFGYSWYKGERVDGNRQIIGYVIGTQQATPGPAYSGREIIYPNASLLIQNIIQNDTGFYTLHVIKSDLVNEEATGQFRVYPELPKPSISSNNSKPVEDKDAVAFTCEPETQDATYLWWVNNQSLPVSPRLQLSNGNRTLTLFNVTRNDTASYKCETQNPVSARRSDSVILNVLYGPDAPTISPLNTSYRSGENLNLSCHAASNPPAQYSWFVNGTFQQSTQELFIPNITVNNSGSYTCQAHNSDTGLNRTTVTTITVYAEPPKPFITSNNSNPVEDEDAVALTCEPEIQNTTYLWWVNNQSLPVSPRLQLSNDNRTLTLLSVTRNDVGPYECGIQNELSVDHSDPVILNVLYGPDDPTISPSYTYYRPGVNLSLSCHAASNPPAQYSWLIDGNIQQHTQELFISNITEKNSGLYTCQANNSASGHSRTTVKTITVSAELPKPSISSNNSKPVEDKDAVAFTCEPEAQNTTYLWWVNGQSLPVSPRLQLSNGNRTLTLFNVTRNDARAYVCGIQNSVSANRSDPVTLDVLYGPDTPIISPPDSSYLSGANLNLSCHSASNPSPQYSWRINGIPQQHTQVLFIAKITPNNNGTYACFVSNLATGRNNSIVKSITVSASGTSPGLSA

T2: Human CEACAM5 A3B3 domain (human, UniProt P06731 499-685)
T2 construct: also called human A3B3 domain; not shown: The human Fc part (and any linker) implied by capture on an anti-human Fc antibody chip
T2 sequence: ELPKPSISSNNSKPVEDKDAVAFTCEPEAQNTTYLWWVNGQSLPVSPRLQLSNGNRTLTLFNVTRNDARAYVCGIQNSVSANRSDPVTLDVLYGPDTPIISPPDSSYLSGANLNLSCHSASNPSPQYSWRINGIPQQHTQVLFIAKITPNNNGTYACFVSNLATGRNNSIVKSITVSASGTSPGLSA


Tests used:
[1] = biological target: T1, human CEACAM5 expressed on MKN45 cells; experiment: flow cytometry on MKN45 cells, 300 nm [sic], PE-anti human Fc secondary; negative control
[2] = biological target: T2, Human CEACAM5 A3B3 domain; experiment: SPR (Biacore T200), A3B3 domain captured on anti-human Fc CM5 chip, sdAb injected, 1:1 Langmuir
[3] = biological target: T1, human CEACAM5 expressed on MKN45 cells; experiment: flow cytometry on MKN45 cells, sdAb at 300 nm as printed, PE-anti human Fc secondary
[4] = biological target: T1, human CEACAM5 expressed on MKN45 cells; experiment: cell-based or functional assay

| Geometric mean MFI [1] [MFI] | Kd [2] [nM] | koff [2] [s⁻¹] | kon [2] [M⁻¹ s⁻¹] | Geometric mean MFI [3] [MFI] | EC50 (read off the curve), internalization by pHrodo [4] [nM] | Molecule |
| --- | --- | --- | --- | --- | --- | --- |
| 12.9 |  |  |  |  |  | Human IgG1 isotype (antibody) |
|  | 9.74 | 0.00208 | 214000 | 292 | ~20 | anti-CEACAM5 single domain antibody of SEQ ID NO: 5 (VHH, tags or Fc in the assays are not described) VHH: EVDLVESGGGLVQAGGSLRLSCAPSGRTSSLDTMAWFRQAPGKEREFVASTNWNRGGASYADSVKGRFTISRDATKNTVYLQINSLEPEDTAVYYCAASTRGIVSDNYWGQGTQVTVSS |
|  | 7.77 | 0.00126 | 162000 | 647 |  | anti-CEACAM5 single domain antibody of SEQ ID NO: 6 (VHH, tags or Fc in the assays are not described) VHH: EVQLVESGGGLVQPGGSLRLSCAASRGTFSRLDMGWFRQAPGKEREFVASSTWSGGTAYATDSVKTRFTISRDSAKTTVYLQMNSLRPEDTAVYYCAAGLSLEQHTPPYWGQGTQVTVSS |
|  | 19.1 | 0.00243 | 127000 | 636 |  | anti-CEACAM5 single domain antibody of SEQ ID NO: 8 (VHH, tags or Fc in the assays are not described) VHH: AVQLVESGGGLVQAGGSLRLSCAASGRTFSSYWLGWFRQVPGEEREFVAAISWSGSGVVTNYADSVKGRFTISRDDGNNALYLQMSNLNPEDTAVYYCAARLGTYYKDYARSGAYDTWGQGTQVTVSS |
|  | 7.74 | 0.0032 | 414000 |  |  | anti-CEACAM5 single domain antibody of SEQ ID NO: 3 (VHH, tags or Fc in the assays are not described) VHH: EVDLVESGGGLVQPGGSLRLSCAASGFTFSSYYMSWVRQPPGKGIEWVSEISSGGGSTNYAVPVEGRFTISRDNAKNTLSLQMNSLKPEDTALYYCARGSHADFNSWGQGTQVTVSS |
|  | 0.533 | 0.000997 | 1.87e+06 | 565 |  | anti-CEACAM5 single domain antibody of SEQ ID NO: 2 (VHH, tags or Fc in the assays are not described) VHH: QLQLVESGGGLVQPGGSLRLSCAVSGDRWDYYAIGWIRQAPGKEREGVSCISSSGRTTNYADSVKGRFTISRDNAKNTVYLQMNSLKPEDTAVYYCSTEFTGWDRCGFDEYDHRGQGTQVTVSS |
|  | 19 | 0.013 | 688000 |  |  | anti-CEACAM5 single domain antibody of SEQ ID NO: 7 (VHH, tags or Fc in the assays are not described) VHH: EVQLVESGGGLVQAGGSLRLSCAASGRTFSRDVMGWFRQAPGKEREFVAVINWTDSTYYLDSVKGRFTISRENAENTVYLQMNSLKPEDTAIYYCATGIGGLYRRPSAYKYWGQGTQVTVSS |
|  | 0.362 | 4.46e-05 | 123000 | 292 | ~20 | anti-CEACAM5 single domain antibody of SEQ ID NO: 1 (VHH, Alpaca sdAb clone expressed in E. coli) VHH: EVQLVESGGGLVQAGGSLRLSCVASTRIAGMGWYRAPPGKGRELVASISEEGTTTYAVPVEGRFTVSRDNVKNMLHLQMNSLKPEDTAMYYCVARRTFPSVVEGVDYWGQGTQVTVSS |
|  | 2 | 0.000311 | 155000 | 394 |  | anti-CEACAM5 single domain antibody of SEQ ID NO: 4 (VHH, tags or Fc in the assays are not described) VHH: EVQLVESGGGLVQPGESLRLSCAASGFSFSSYAMSWVRQPPGMGIEWVAEIDSGGGSTDYAVPVKGRFTISRDNVKNTLYLQMNSLKPEDTAVFYCAKGTHADFGSWGQGTQVTVSS |
|  | 0.732 |  |  | 382 | 25 to 30 | anti-CEACAM5 single domain antibody of SEQ ID NO: 9 (VHH, tags or Fc in the assays are not described) VHH: QVQLVESGGGLVQPGESLRLSCAASGFTFSSYAMSWVRQPPGKGIEWVAEIDSGGDRTDYAVPVKGRFTISRDNVENTLYLQMNSLKPEDTAVFYCAKGTHADFGSWGQGTLVTVSS |
|  | 48.9 | 0.0137 | 280000 |  | ~20 | anti-CEACAM5 single domain antibody of SEQ ID NO: 10 (VHH, tags or Fc in the assays are not described) VHH: EVDLMESGGGLVQPGGSLRLSCTASGDTLDYYAIDWFRQAPGKEREGVSCISSRGGTTNYADAVKGRFTISRDNAKNTVYLQMNSLRPEDTAVYYCAAEFTGWAVCNFSRKSGEYDYWGQGTQVTVSS |
